{
  "source": "paper PMC2879156",
  "key": {"SarA": {"target": "T1, SarA (Staphylococcus aureus, UniProt Q7A1N5 1-124)", "T1 sequence": "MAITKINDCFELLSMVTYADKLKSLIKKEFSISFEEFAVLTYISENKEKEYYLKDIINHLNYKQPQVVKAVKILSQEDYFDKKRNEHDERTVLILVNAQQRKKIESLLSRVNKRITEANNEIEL", "assay": "EMSA"}, "SarA C9A": {"target": "SarA C9A (Staphylococcus aureus, UniProt Q7A1N5 1-124, C9A)", "assay": "EMSA"}},
  "data": [
    {"binder": "agr B1/B2 (dsDNA) DNA 1: ATGTTAAAATATTAAATACAAATTACATTTAACAGTTAAGTATTTATTTCCTACAGTTA DNA 2: TAACTGTAGGAAATAAATACTTAACTGTTAAATGTAATTTGTATTTAATATTTTAACAT", "values": [
      {"measurement": "binding result", "setting": "SarA", "value": "binds"},
      {"measurement": "binding result", "setting": "SarA C9A", "value": "binds"}
    ]}
  ]
}
